Test results published in paper PMC10881151 (Molecular Biology of the Cell, 2024).
Like-named read-outs stand apart in the source and are kept apart here.

Assays:
[1] = target: T1, actin filaments (rabbit skeletal muscle actin) (rabbit, UniProt P68135 1-377); test: co-sedimentation
[2] = target: T1, actin filaments (rabbit skeletal muscle …); test: co-sedimentation; remark: listed apart in the source
AUC = target: the molecule itself; test: AUC

B1: Drp1-WT (full-length human DRP1 isoform 3) (enzyme, UniProt O00429-4 1-699, looked up)
chain: MEALIPVINKLQDVFNTVGADIIQLPQIVVVGTQSSGKSSVLESLVGRDLLPRGTGIVTRRPLILQLVHVSQEDKRKTTGEENGVEAEEWGKFLHTKNKLYTDFDEIRQEIENETERISGNNKGVSPEPIHLKIFSPNVVNLTLVDLPGMTKVPVGDQPKDIELQIRELILRFISNPNSIILAVTAANTDMATSEALKISREVDPDGRRTLAVITKLDLMDAGTDAMDVLMGRVIPVKLGIIGVVNRSQLDINNKKSVTDSIRDEYAFLQKKYPSLANRNGTKYLARTLNRLLMHHIRDCLPELKTRINVLAAQYQSLLNSYGEPVDDKSATLLQLITKFATEYCNTIEGTAKYIETSELCGGARICYIFHETFGRTLESVDPLGGLNTIDILTAIRNATGPRPALFVPEVSFELLVKRQIKRLEEPSLRCVELVHEEMQRIIQHCSNYSTQELLRFPKLHDAIVEVVTCLLRKRLPVTNEMVHNLVAIELAYINTKHPDFADACGLMNNNIEEQRRNRLARELPSAVSRDKVASGGGGVGDGVQEPTTGNWRGMLKTSKAEELLAEEKSKPIPIMPASPQKGHAVNLLDVPVPVARKLSAREQRDCEVIERLIKSYFLIVRKNIQDSVPKAVMHFLVNHVKDTLQSELVGQLYKSSLLDDLLTESEDMAQRRKEAADMLKALQGASQIIAEIRETHLW
- Kd [1]: 1200 nM
- Kd [2]: 1700 nM
- stoichiometry N (AUC): 2
